In patent US20250197496A1 (EVOLVELMMUNE THERAPEUTICS, published 2025):
Changes are numbered by the printed parent chain.

T1: Human ULBP2 (recombinant) (human, UniProt Q9BZM5 26-217)
T1 construct: bought (R&D Systems) as ULBP2-Fc or ULBP2-His; also called recombinant ULBP2
T1 sequence: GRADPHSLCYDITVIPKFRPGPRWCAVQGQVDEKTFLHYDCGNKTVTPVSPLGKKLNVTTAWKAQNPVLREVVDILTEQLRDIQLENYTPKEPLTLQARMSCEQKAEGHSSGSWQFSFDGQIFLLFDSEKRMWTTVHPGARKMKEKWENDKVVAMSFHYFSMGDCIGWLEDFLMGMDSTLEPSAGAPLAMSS

B1: EIP0373 (bispecific antibody)
heavy 1: EVQLLESGGGLVQPGGSLKLSCAASGFTFNTYAMNWVRKAPGKGLEWVARIRSKYNNYATYYADSVKDRFTISRDDSKNTAYLQMNNLKTEDTAVYYCVRHGNFGNSYVSWFAYWGQGTLVTVSSASTKGPSVFPLAPSSKSTSGGTAALGCLVKDYFPEPVTVSWNSGALTSGVHTFPACLQSSGLYSLSSVVTVPSSSLGTQTYICNVNHKPSNTKVDKKVEPKSSDKTHTCPPCPAPEAAGAPSVFLFPPKPKDTLMISRTPEVTCVVVDVSHEDPEVKFNWYVDGVEVHNAKTKPREEQYNSTYRVVSVLTVLHQDWLNGKEYKCKVSNKALPAPIEKTISKAKGQPREPQVCTLPPSREEMTKNQVSLSCAVKGFYPSDIAVEWESNGQPENNYKTTPPVLDSDGSFFLVSKLTVDKSRWQQGNVFSCSVMHEALHNHYTQKSLSLSPG
light 1: ELVVTQEPSLTVSPGGTVTLTCRSSTGAVTTSNYANWVQDKPGQAPRGLIGGTNKRAPGTPARFSGSLLGGKAALTLSGVQPEDEAEYYCALWYSNLWVFGGGTKLTVLGQPKANPTVTLFPPSSEELQANKADLVCLISDFYPGAVTVAWKADGSPVKAGVETCKPSKQSNNKYAASSYLSLTPEQWKSHRSYSCQVTHEGSTVEKTVAPTESS
heavy 2: not shown
light 2: not shown
notes: IgG1 bispecific, pairing set D; also called EGFR(Cetuximab)-SP34; V373
B2: EIP0506 (bispecific antibody, human IgG1, kappa, lambda)
heavy 1: B1 heavy 1
light 1: B1 light 1
heavy 2: QVQLVQSGAEVKKPGSSVKVSCKASGGTFSNYWMHWVRDAPGQGLEWMGATYRGHSDTYYNQKFKGRVTITADKSTSTAYMELSSLRSEDTAVYYCARGAIYDGYDVLDNWGQGTLVTVSSASTKGPSVFPLAPSSKSTSGGTAALGCLVDDYFPEPVTVSWNSGALTSGVHTFPAVLQSSGLYSLSSVVTVPSSSLGTQTYICNVNHKPSNTKVDKKVEPKSCDKTHTCPPCPAPEAAGAPSVFLFPPKPKDTLMISRTPEVTCVVVDVSHEDPEVKFNWYVDGVEVHNAKTKPREEQYNSTYRVVSVLTVLHQDWLNGKEYKCKVSNKALPAPIEKTISKAKGQPREPQVYTLPPCREEMTKNQVSLWCLVKGFYPSDIAVEWESNGQPENNYKTTPPVLDSDGSFFLYSKLTVDKSRWQQGNVFSCSVMHEALHNHYTQKSLSLSPG
light 2: not shown
notes: IgG1 bispecific, pairing set D; also called BCMA(Belantamab)-SP34; V506
B3: EIP0504 (bispecific antibody, V domains shown)
VH 1: EVQLLESGGGLVQPGGSLKLSCAASGFTFNTYAMNWVRKAPGKGLEWVARIRSKYNNYATYYADSVKDRFTISRDDSKNTAYLQMNNLKTEDTAVYYCVRHGNFGNSYVSWFAYWGQGTLVTVSS
VL 1: ELVVTQEPSLTVSPGGTVTLTCRSSTGAVTTSNYANWVQDKPGQAPRGLIGGTNKRAPGTPARFSGSLLGGKAALTLSGVQPEDEAEYYCALWYSNLWVFGGGTKLTVL
VH 2: EVQLVQSGAEVKKPGESLKISCKGSGYAFSTSWMNWVRQMPGKGLEWMGRIYPGDGDTNYNGNFKGQVTISADKSISTAYLQWSSLKASDTAMYYCARGGELRLEAMDSWGQGTLVTVSS
VL 2: EIVMTQSPATLSLSPGERITLSCSASSSIHSNYLHWYQQKPGQAPRLLIYRTSNLASGIPARFSGSGSGTDFTLTISSLQPEDFAVYYCQQGFSIPFTFGQGTKLEIK
notes: also called ULBP2(A06)-SP34; EV104.2:CD3.1
B4: ULBP2xCD3 bispecific CD58 fusion containing CD3 variant CD3-01 (bispecific antibody, V domains shown)
VH: B3 VH 1
VL: B3 VL 1
B5: ULBP2xCD3 bispecific CD58 fusion containing CD3 variant CD3-A2 (bispecific antibody, V domains shown)
VH: B3 VH 1
VL: B3 VL 1 with G52D
B6: ULBP2xCD3 bispecific CD58 fusion containing CD3 variant CD3-A8 (bispecific antibody, V domains shown)
VH: B3 VH 1 with R50K, N106D
VL: B3 VL 1 with N96Q
B7: ULBP2xCD3 bispecific CD58 fusion containing CD3 variant CD3-A9 (bispecific antibody, V domains shown)
VH: B3 VH 1 with N103S
VL: B3 VL 1 with N96Q
B8: ULBP2xCD3 bispecific CD58 fusion containing CD3 variant CD3-A6 (bispecific antibody, V domains shown)
VH: B3 VH 1 with T31D
VL: B3 VL 1
B9: ULBP2xCD3 bispecific CD58 fusion containing CD3 variant CD3-A5 (bispecific antibody, V domains shown)
VH: B3 VH 1 with N106D, S107D
VL: B3 VL 1 with N96Q

Key:
[1] = target: T2, human CD3 epsilon (recombinant, plate-coated) (human, UniProt P07766 23-126); assay: sandwich ELISA, plate coated with CD3ε, luminescence (RLU)
T2 construct: also called CD3ε; Hu CD3 epsilon

EGFR = EGFR (UniProt P00533 25-645, limits assumed); assay: sandwich ELISA, plate coated with antigen (legend paragraph 82 names no antigen; EGFR taken as the antigen of the cetuximab arm), luminescence (RLU)
[2] = target: T1, Human ULBP2 (recombinant); assay: sandwich ELISA, plate coated with antigen (legend paragraph 82 names no antigen; ULBP2 taken as the antigen of this antibody's target arm), luminescence (RLU)
[3] = target: T3, human CD3 epsilon/delta heterodimer, biotin labeled (human, UniProt P04234 22-105, biotin labeled); assay: SPR, biotinylated CD3e/d on SA chip;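 further: analytes injected over immobilized CD3 heterodimer, association 60-120 s and dissociation 120-420 s, rate and affinity constants obtained by fitting sensorgrams to a 1:1 binding model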
T3 construct: bought (Acro Biosystems); also called Human CD3e/d

[4] = target: T4, cynomolgus CD3 epsilon/delta heterodimer, biotin labeled (cynomolgus, UniProt Q95LI8 22-105, biotin labeled); assay: SPR, biotinylated CD3e/d on SA chip;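 further: analytes injected over immobilized CD3 heterodimer, association 60-120 s and dissociation 120-420 s, rate and affinity constants obtained by fitting sensorgrams to a 1:1 binding model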
T4 construct: bought (Acro Biosystems); also called Cyno CD3e/d
T4 sequence (chain, as listed by the source mutant, chain 1 of 2): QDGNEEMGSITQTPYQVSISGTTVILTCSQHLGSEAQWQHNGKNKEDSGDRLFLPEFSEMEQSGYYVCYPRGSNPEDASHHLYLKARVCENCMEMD
T4 sequence (Q95LI8 22-105, stated change not applied, chain 2 of 2): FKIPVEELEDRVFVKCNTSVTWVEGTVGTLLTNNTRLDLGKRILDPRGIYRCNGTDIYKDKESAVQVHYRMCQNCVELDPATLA

| Binder | EC50 (read off the curve) [1] | EC50 (read off the curve) (EGFR) | EC50 (read off the curve) [2] | Kd [3] | koff [3] | kon [3] | Kd [4] | koff [4] | kon [4] |
| --- | --- | --- | --- | --- | --- | --- | --- | --- | --- |
| B1 | ~0.3 µg/mL | ~0.3 µg/mL | – | – | – | – | – | – | – |
| B2 | ~0.5 µg/mL | – | – | – | – | – | – | – | – |
| B3 | ~0.4 µg/mL | – | ~0.6 µg/mL | – | – | – | – | – | – |
| B4 | – | – | – | 4.7 nM | 0.00819 s⁻¹ | 1.76e+06 M⁻¹ s⁻¹ | 3.2 nM | 0.00515 s⁻¹ | 1.6e+06 M⁻¹ s⁻¹ |
| B5 | – | – | – | 102 nM | 0.0263 s⁻¹ | 257000 M⁻¹ s⁻¹ | 89 nM | 0.0227 s⁻¹ | 256000 M⁻¹ s⁻¹ |
| B6 | – | – | – | 147 nM | 0.0635 s⁻¹ | 432000 M⁻¹ s⁻¹ | 137 nM | 0.0614 s⁻¹ | 448000 M⁻¹ s⁻¹ |
| B7 | – | – | – | 155 nM | 0.101 s⁻¹ | 654000 M⁻¹ s⁻¹ | 212 nM | 0.0718 s⁻¹ | 338000 M⁻¹ s⁻¹ |
| B8 | – | – | – | 75 nM | 0.0479 s⁻¹ | 640000 M⁻¹ s⁻¹ | 75 nM | 0.0418 s⁻¹ | 558000 M⁻¹ s⁻¹ |
| B9 | – | – | – | 354 nM | 0.0245 s⁻¹ | 69200 M⁻¹ s⁻¹ | 368 nM | 0.0337 s⁻¹ | 91700 M⁻¹ s⁻¹ |
